Target: T1, Pfu DNA polymerase (Pyrococcus furiosus, UniProt P61875 SEQ:1-775)
T1 sequence: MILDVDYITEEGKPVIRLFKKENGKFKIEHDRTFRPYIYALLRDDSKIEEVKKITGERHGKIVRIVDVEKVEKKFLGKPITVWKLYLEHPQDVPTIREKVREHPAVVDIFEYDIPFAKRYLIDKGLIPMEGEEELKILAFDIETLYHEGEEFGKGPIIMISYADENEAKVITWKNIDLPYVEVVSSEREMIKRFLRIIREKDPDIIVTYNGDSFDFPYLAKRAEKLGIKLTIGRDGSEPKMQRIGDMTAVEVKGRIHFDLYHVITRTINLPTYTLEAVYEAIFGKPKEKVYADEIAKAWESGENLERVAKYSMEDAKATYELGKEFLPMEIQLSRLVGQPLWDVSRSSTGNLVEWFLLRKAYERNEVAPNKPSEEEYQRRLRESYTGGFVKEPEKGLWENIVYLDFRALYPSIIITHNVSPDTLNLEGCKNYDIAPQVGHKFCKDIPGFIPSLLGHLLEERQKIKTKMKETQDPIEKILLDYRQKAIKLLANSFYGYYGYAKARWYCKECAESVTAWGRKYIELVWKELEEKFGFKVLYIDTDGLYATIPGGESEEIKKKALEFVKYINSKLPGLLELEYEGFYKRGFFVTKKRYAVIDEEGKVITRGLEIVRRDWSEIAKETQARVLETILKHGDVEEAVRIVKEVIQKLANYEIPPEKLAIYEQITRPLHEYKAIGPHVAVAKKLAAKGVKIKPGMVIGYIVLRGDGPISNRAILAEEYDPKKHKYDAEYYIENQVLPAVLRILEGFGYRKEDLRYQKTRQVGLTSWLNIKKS
Test: 3'-5' exonuclease fluorescence assay, 65 C; high exonuclease activity
Conditions: tags: Stratagene (commercial); label: 5'-FAM, 3'-dabcyl; hairpin, 16 bp stem with 3' T:T* mismatch and 5' unpaired poly-T
Experimental: The oligonucleotide was combined with buffer and the enzyme and incubated in a real time detection instrument, the DNA Engine Opticon System (MJ Research, Inc.). This instrument excites the FAM and detects any fluorescence if present. In the absence of 3′ to 5′ exonuclease activity, there is only background fluorescence because FAM is quenched by DAB. However if the enzyme does have 3′ to 5′ exonuclease activity, the T:T* mismatch is recognized and the 3′-T* is removed. The DAB is released and will no longer quench the FAM fluorescence. The Opticon System will detect the increase in fluorescence with increasing time (readings were taken every 10 sec at 65° C.). The rate of fluorescence increase directly reflects the amount of 3′ to 5′ exonuclease activity. […] The results (FIG. 3) of this analysis are discussed below.

TTTTTTGAGGTGTGTCCTACACAGCGGAGTGTAGGACACACCTCT (structured_DNA, 3' terminal T is amino-link dT carrying dabcyl) [FAM/dabcyl hairpin exonuclease substrate]
binding result: binds
